Results from publication PMC3605417, “An Archaeal Homolog of Proteasome Assembly Factor Functions as a Proteasome Activator” (PLoS ONE, 2013).
Positions count from the first letter of the chain named.

T1: His6-tagged wild-type 20S proteasome (αβ1 form), Pyrococcus furiosus (Pyrococcus furiosus, UniProt Q8U0L6 1-260; Q8U4C9 1-196)
T1 sequence (looked up) 1: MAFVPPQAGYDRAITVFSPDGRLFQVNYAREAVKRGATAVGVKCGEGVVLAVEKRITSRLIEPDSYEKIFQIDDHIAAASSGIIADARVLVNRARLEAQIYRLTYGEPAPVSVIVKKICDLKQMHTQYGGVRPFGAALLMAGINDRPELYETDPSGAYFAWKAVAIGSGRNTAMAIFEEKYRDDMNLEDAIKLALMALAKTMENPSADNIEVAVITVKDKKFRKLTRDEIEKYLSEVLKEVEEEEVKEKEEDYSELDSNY
T1 sequence (looked up) 2: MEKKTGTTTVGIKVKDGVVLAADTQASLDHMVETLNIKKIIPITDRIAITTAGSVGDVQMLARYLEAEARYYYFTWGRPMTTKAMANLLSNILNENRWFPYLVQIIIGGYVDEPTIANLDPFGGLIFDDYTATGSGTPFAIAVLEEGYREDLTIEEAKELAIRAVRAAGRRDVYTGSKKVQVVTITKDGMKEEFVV

T2: immature 20S proteasome retaining the β subunit propeptide, inactive mutant (α + β1^T7A), Pyrococcus furiosus (Pyrococcus furiosus, UniProt Q8U0L6 1-260; Q8U4C9 1-196, T7A)
T2 construct: proteasome α subunit PsmA, Pyrococcus furiosus, locus PF1571, residues 1-260; proteasome β subunit 1 PsmB1 with its propeptide, Pyrococcus furiosus, locus PF0159, residues 1-196; non-tagged version; source: E. coli BL21(DE3), co-expressed, purified (heat precipitation at 85°C, HiTrap Q HP, Sephacryl S-400); copies: 14 + 14
T2 sequence (looked up) 1: T1 sequence (looked up) 1
T2 sequence (looked up) 2: T1 sequence (looked up) 2 with T7A

T3: non-tagged mature 20S proteasome, inactive mutant (α + β1^NΔ6/T7A), Pyrococcus furiosus (Pyrococcus furiosus, UniProt Q8U0L6 1-260; Q8U4C9 7-196, T7A)
T3 construct: proteasome α subunit PsmA, Pyrococcus furiosus, locus PF1571, residues 1-260; proteasome β subunit 1 PsmB1, Pyrococcus furiosus, locus PF0159 (residues 1-196); NΔ6: the six N-terminal (propeptide) residues removed; non-tagged version; source: E. coli BL21(DE3), co-expressed, purified (heat precipitation at 85°C, HiTrap Q HP, Sephacryl S-400); copies: 14 + 14
T3 sequence (looked up) 1: T1 sequence (looked up) 1
T3 sequence (looked up) 2: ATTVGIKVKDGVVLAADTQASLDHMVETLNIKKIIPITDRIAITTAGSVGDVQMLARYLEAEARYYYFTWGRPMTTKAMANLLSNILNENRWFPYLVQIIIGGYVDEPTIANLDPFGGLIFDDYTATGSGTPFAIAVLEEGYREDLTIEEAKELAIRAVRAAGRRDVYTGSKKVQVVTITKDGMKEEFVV

B1: non-tagged double homoheptameric ring of the proteasome α subunit, Pyrococcus furiosus (complex, UniProt Q8U0L6 1-260, looked up)
chain: T1 sequence (looked up) 1
notes: proteasome α subunit PsmA, Pyrococcus furiosus, locus PF1571, residues 1-260; also called α subunit ring; source: E. coli BL21(DE3), purified (same procedure as the non-tagged 20S proteasome mutants); copies: 14
B2: His6-PbaA, Pyrococcus furiosus (natural protein, UniProt Q8U4Q9 1-242, looked up)
chain: MEEKKPVNLVLPEVENAIFIEGYPGVGLVGHIAANFLAKELDMDLIGYVDSLFIPPMSLILEGRPTPPLRFYGKNNIIIAIADIFLPPTLVNEIAKEIVNYLKKVNAEKVISLAGMGIGFFKDTFEVWGIGGSEEENKELESLGVKILKYGSITGMSGKLLWEASRAGLKSYVLLGETFGDRPDPRAAANVVEVLNKMLGLNVSVEPLLKEAEMIEEQLRRMHEQMEEARRKMERQYETMYL
notes: PbaA, Pyrococcus furiosus, locus PF0015, residues 1-242; pET-28b (NdeI/XhoI); Pentamer in solution by sedimentation velocity; also called His6-tagged PbaA; PF0015; source: E. coli BL21(DE3), purified (Ni2+-chelating Sepharose, HiTrap Q HP, Superdex 200); not shown: His6, N-terminal, kept
B3: His6-PbaB, Pyrococcus furiosus (natural protein, UniProt Q8U1R3 1-280, looked up)
chain: MEEGGTRNREEGKMKETTIVVYERPDIYDPIFIEGLPGIGLVGKLAAEHLIQELKAKKFAELYSPHFMHQVLIRKNSVVELMKNEFYYWKSPDDEHRDLIIVTGDTQVPPTDSYGHFEVAGKMLDFVQEFGTREIITMGGYQVPEIQGEPRVLAAVTHEDLIEYYKSKLEGCSVEVIWREDEGGAIVGAAGLLLGIGKLRGMFGISLLGESLGYIVDAKAAKAVLSAVTKILGLEIDMTALDERAKETEEILRKVEEMQRAMMEQVTPKLPHEEEDRGYL
notes: PbaB, Pyrococcus furiosus, locus PF1142, residues 1-280; pET-28b (NdeI/XhoI); Used in SPR (immobilised), ultracentrifugation, electron tomography and the chaperone assay; also called His6-tagged PbaB; PF1142; source: E. coli BL21(DE3), purified (Ni2+-chelating Sepharose, HiTrap Q HP, Superdex 200); not shown: His6, N-terminal, kept
B4: PbaB (non-tagged), Pyrococcus furiosus (natural protein, UniProt Q8U1R3 1-280, looked up)
chain: B3 chain
notes: PbaB, Pyrococcus furiosus, locus PF1142, residues 1-280; Homotetramer in the crystal and by ultracentrifugation; Cloned into NdeI/XhoI of pET-28b; also called non-tagged PbaB; PF1142; source: E. coli BL21(DE3), purified (Ni2+-chelating Sepharose, thrombin cleavage of the His6-tag, HiTrap Q HP, Superdex 200); not shown: His6, N-terminal, cleaved

Columns and labels:
[1] = target: B3; experiment: SPR; Biacore T100, Sensor Chip NTA, 25°C; His6-tagged PbaB (wild type or CΔ3) immobilised; non-tagged mature (18.8-300 nM) or immature (18.5-296 nM) 20S proteasome or α subunit ring (15.4-246 nM) injected; 10 mM HEPES (pH 7.5), 150 mM NaCl, 0.05% Tween20; 10 μl/min; settings: both partners purified
[2] = target: the molecule itself; experiment: AUC; sedimentation velocity, 20 μM His6-tagged PbaA or PbaB, 150 mM sodium phosphate (pH 7.5), 100 mM NaCl, 38,000 rpm, 20°C; continuous c(s) distribution (SEDFIT)
[3] = target: T1, His6-tagged wild-type 20S proteasome …; experiment: cell-based or functional assay
[4] = target: T2, immature 20S proteasome retaining the β …; experiment: SPR; Biacore T100, Sensor Chip NTA, 25°C; His6-tagged PbaB (wild type or CΔ3) immobilised; non-tagged mature (18.8-300 nM) or immature (18.5-296 nM) 20S proteasome or α subunit ring (15.4-246 nM) injected; 10 mM HEPES (pH 7.5), 150 mM NaCl, 0.05% Tween20; 10 μl/min; settings: both partners purified
[5] = target: T3, non-tagged mature 20S proteasome, …; experiment: as above; settings: both partners purified
[6] = target: the molecule itself; experiment: crystal structure; non-tagged PbaB, 2.20 Å, space group C222(1), four molecules per asymmetric unit; 10% PEG10000, 100 mM Bis-Tris (pH 5.0), 50 mM sodium acetate, 5 mM NaAuCl4, 20°C

## B1
[1]
  Kd: 0.33 µM

## B2
[2]
  stoichiometry N: 5

## B3
[2]
  stoichiometry N: 4
[3]
  proteasomal degradation of human α-synuclein (18 μM) by 35 nM wild-type 20S proteasome with 105 nM PbaB, 95°C; fold acceleration by PbaB: ~2.5 fold
  proteasomal degradation of the fluorogenic nonapeptide LFP (10 μM) by 35 nM wild-type 20S proteasome with 175 nM PbaB, 45°C; fold acceleration by PbaB: ~3 fold
[4]
  Kd: 0.021 µM
[5]
  Kd: 0.0078 µM

## B4
[6]
  stoichiometry N: 4
